Results: the DeepSol protein solubility set

Assay: soluble on expression in E. coli; label from the status in PepcDB or PDB records

| Sequence | soluble on expression in E. coli |
| --- | --- |
| MKVDLNADAGESYGAFAYGHDREIFPLVSSANLACGFHGGSPGRILEAVRLAKAHGVAVGAHPGFPDLVGFGRREMALSPEEVYADVLYQIGALSAFLKAEGLPLHHVKPHGALYLKACRDRETARAIALAVKAFDPGLPLVVLPGTVYEEEARKAGLRVVLEAFPERAYLRSGQLAPRSMPGSWITDPEEAARRALRMVLEGKVEALDGGEVAVRADTLCIHGDNPNAPEVARAVREALEQAGVEVRAF | soluble |
| MGSDKIHHHHHHMTPRDTVAAFPATSQQSAIRATPFVWIEPANIPPRKWLYGHHLIRGYVSLTVAPGATGKSSLLIADALAMSANRNLVGTPVYAGRPLRVWIWNLEDPIDELQRRITATAIQYQIHSTDIEGRLFVDSGRDQSLCIARQGHNGIEILDPVIDALQAEILAREIDVLIVDPFVSSHQVSENDNGAIDAVAKKWGAIADRTGCAIELVHHLRKLPHGIEATAESARGAVSLVAAARSVRVLNRMAKEEALQCGLTSNKGHFKVSDDKNNLAAATDSENWFRMESVQLDNGDNVGVVVQWDKPDPFDGITPRHLLAVQKAIDGKDYRQNVQATDWVGQHIGHIVGLDPAKPHDKNRLKSLIKTWINNGALIADEIMNKKGRPTPVIAVGKWVTAAEVAATNVADDEFPLG | not soluble |
| MDYTNNQLHVIYGDASLGLEGPNFHYLFSYERGGLESLVVNQKEWLYRTPTPLFWRATTDNDHGNGFDVKAAQWYAADRFTTCQKIDLTVDGQLVQPLPIAPLNNRYTNHEMANQVALTYHFVTPTVPSTSVSITYTVASDGNIKIMTHFAGREGLPELPAFGLRFIMPTTATGFDYQGLSGETYPDRLAGATQGQFHVDGLPVTPYLVPQECGMHMQTSQLTVTRSTTQNNADQSKQPFSLTFSQADQPFAFSCLPYTAAELEQATHLEELPLPRRTVLSIYGAVRGVGGIDSWGADVEAKYHIPANQDLDFSFNIHFLEHHHHHH | not soluble |
| MGSDKIHHHHHHMVSKLLALEAYPKLKDIDFRLLRAVELNMRHHKWVPLEDIARFARMDLESASYRLGKLDKLGLVIRRSDIGYIGYQLTIHGYDALAIRAFAKKGVIEAISTTHIGVGKDADVYVAITPQGEKVAIKFNRIGERTSARKAYYHSDVFADKHHKSWLYVSRLIAKKEHEALVLLSSFAKVPKPIAWNRHAIVMEFIDGVELAELRDTDLTKEEAEEILGKVLDEYEKIVKFGIVHGDMSEFNIVITKDNDILIIDWAQYLTCANPESLGLLKRDISVLLNAFRRRWGVKRDFEEEWKRFYEAWQIGRREKEES | not soluble |
| MALAPHAVHRLYEYRKSISTKPFGARGKKLIRCPLCLLGEQFCTCSLRKQLTTQASFLLIMYNDEVLKPTNSGRLIADLIPDTHAFLWSRTDPAPELLALLSSDHYQPFLVFPAQYADQGQTVLSQVPMATLAKGKRPLLIMLDGSWREAIKMFRKSPYLQGLPILSFDPDTLATYALRKGSHDFQLGTAEVASLALAAMGEEANGKALTAWFDLFVESSLLGRNRRCREDILPISDFTNAFEVAYTAATP | not soluble |
| MKYDILIAGVGGQGVVLASRILALSAMKAGFRVSTAETIGMSQREGSVSSHVRIGDEISGSLIPEGKADLLIGLEPAETIRNLPFLKEGGKIIVNSHAIPPASKPPGSPEYNPGALLSYLKTGFPDFFCLDFTRLAEEAGTYRAANVAMIGAAAGMGILPFSKEIVLALMEAEIPEKHRAVNRAAFEEAVKKIK | not soluble |
| MGSDKIHHHHHHMARPRKTIVSLDDTPYYHCCSRVVRKAFLCGIDSATGENFEHRRAWVEGRMFELATIFAMDICAYAVMSNHLHIVLRVDAEQAKQWTDKQVLIQWHKGFKGTLLTQRFVKDEVLDEFELKTVIDSVAVYRERLTSISWFIRALCEPIARMANKEDGCTGHFWEGRFKSQALLDEAAVLACMAYVDLNPVRAKMAATPETSDYTGIQRRINAALKGEQPNELLPFLGNERDNMPKGLMFSAKDYLLLVEDTGRIIRDDKRGAISRSSQYILDRLNIPTENWLKITKDFGHLFKGAVGSLQALSQYCEHLERKRRQSAANCQRWLCG | not soluble |
| MNLFGQKDRGNHVSGVDRGKVIMYGLSTCVWCKKTKKLLTDLGVDFDYVYVDRLEGKEEEEAVEEVRRFNPSVSFPTTIINDEKAIVGFKEKEIRESLGF | soluble |
| MAAPVAPSEPQASRAPQPPVCLLVLGMAGSGKTTFVQRLTGHLHNKGCPPYVINLDPAVHEVPFPANIDIRDTVKYKEVMKQYGLGPNGGIVTSLNLFATRFDQVMKFIEKAQNTFRYVLIDTPGQIEVFTWSASGTIITEALASSFPTVVIYVMDTSRSTNPVTFMSNMLYACSILYKTKLPFIVVMNKTDIIDHSFAVEWMQDFEAFQDALNQETTYVSNLTRSMSLVLDEFYSSLRVVGVSAVVGTGFDELCTQVTSAAEEYEREYRPEYERLKKSLANAQSNQQKEQLERLRKDMGSVALDPEAGKGNASPVLDPSDLILTRGTLDEEDEEADSDTDDIDHRVTEESREEPAFQNFMEESMAHWKRNK | not soluble |
| MRKKSSSNKEETALHPPPENFETATAELEQIVAGMETGQMSLEDALSAYKRGVELLQYCQNILKNSQQQIKILEADMLKHFSPAEHDAS | not soluble |
| MGSDKIHHHHHHMATIEILGFPHAYELTAPTSYPDALVFIHGWLNSRGYWQPVTSRLSVDFQCLSYDLRGFGESQSQLETDFHRGSSSASLSAQSLQEINLSFDSLYTPAAYAQDLAALLEQLNITSAWLVGHSLGGTIALWAAAQIPQRIKGVICINAGGGIYLKEAFEQFRMAGQRFLQVRPRWLSQLPLIDLLFTRASVSRPLDRQWARQRVIDFVVADPEAALGALLDSTTEDEVNRLPKLVSQLKQPVYFLAGTDDKVMEPKYVRHLASFHPLFQYCGDNVIEIPDCGHLAMLEQPDAVASHIKSLVIGHG | not soluble |
| SPNSMSALKAVFQYIDENQDRYVKKLAEWVAIQSVSAWPEKRGEIRRMMEVAAADVQRLGGSVELVDIGKQKLPDGSEIPLPPILLGKLGSDPQKKTVCIYGHLDVQPAALEDGWDSEPFTLVEREGKLYGRGSTDDKGPVAGWMNALEAYQKTGQEIPVNLRFCLEGMEESGSEGLDELIFAQKDKFFKDVDYVCISDNYWLGKNKPCITYGLRGICYFFIEVECSDKDLHSGVYGGSVHEAMTDLISLMGCLVDKKGKILIPGINDAVAPVTDEEHALYDHIDFDMEEFAKDVGAETLLHSCKKDILMHRWRYPSLSLHGIEGAFSGSGAKTVIPRKVVGKFSIRLVPDMIPEVVSEQVSSYLSKKFAELQSPNKFKVYMGHGGKPWVSDFNHPHYQAGRRALKTVFGVEPDLTREGGSIPVTLTFQEATGKNVMLLPVGSADDGAHSQNEKLNRLNYIEGTKMLAAYLYEVSQLKN | soluble |
| MGSDKIHHHHHHMKFIVKTQMDMEAVAGNYIREVLPNAKVTIAPEGYPGIVIVESEEENALQKILEVPEVEKVYPVLIEVPANLDSIKSAADEIVKYIKEGETFAVRTKKRGKRDFSSVDVNVVLGARIKDLTNAEVNLSYPDKVVQVEIIGEKAYISVIPGKEYTKWKKYPKDKPDCRKLFRKLTIVQMPYWGDYKTARAFGEKIGRAAQAFEVKELIIAPKEKMNAYELMAFIRGVKEGQESRYQIQKEAYPWEVEKVPVTVWDLYQVIRDKRRNRRLIIITDPKGPTLNEVKDKLARDMYYAKEIIIFIGSREGIPIGLFRFADYVVDLAPYMTFATEHGIPATLVALWTIYEEELRRRGEIND | not soluble |
| MEPPLWVFGYGSLIWDPGFPVARSVIARLDGWHRSFCMHSIHYRGTATDPGLVLALDAAPGGACLGVGFQVTPGAEAETLAALRKRELISNAYLERWLPVTLATGETVEAVSYVIDPDHGQYCGGLDLEAQAQIIARAAGERGPNRDYLLHTVAHLQSLGISDPDLCWLATRVRALGNDPVSAAALEHHHHHH | not soluble |
| IGAWGYNVGFNLYDSKTVVTKYHNESKIILKSDGTNNYYEGYEIGSIWGYVTDGYYTADDFEDTNTWKLKEGVVTVDGVSPRPGDIKYQNLRDDGSSTNRIDTGDGTFDNPGDRKIIGNNSLRLQYGINLGVNYKGFDLSVLLQGVGKRDVWISDARRWPFNSGQFGSLFKDQLDYWKPVDSANGDWTAANPNAEYFRIYGQGNNSSYNTRAQTKYLMNGSYLRVKNVTLSYNFPKSWLAPITLTSLKAFVSCENLHTFTKLMKGYDPERLSWGYPFYRTISFGFNVTL | not soluble |
